Data as given in publication PMC3150801 (Nature, 2011).

Target: GST hLRH-1 ligand binding domain (amino acid residues, 185-541) (human, UniProt O00482 185-541)
Assay: pull-down

Sequence of GST hLRH-1 ligand binding domain (amino acid residues, 185-541) (O00482 185-541): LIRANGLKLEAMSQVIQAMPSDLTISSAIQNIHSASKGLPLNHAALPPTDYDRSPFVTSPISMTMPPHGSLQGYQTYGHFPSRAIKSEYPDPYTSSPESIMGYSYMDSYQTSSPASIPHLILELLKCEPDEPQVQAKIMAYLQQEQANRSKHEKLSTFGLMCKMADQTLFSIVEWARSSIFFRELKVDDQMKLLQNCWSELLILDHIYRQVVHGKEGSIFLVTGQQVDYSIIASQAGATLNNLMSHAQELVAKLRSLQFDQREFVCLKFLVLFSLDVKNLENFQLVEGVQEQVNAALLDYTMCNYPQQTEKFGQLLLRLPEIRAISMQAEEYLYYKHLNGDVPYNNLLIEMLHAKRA

fold increase of binding with DLPC or DUPC over basal: ~3 fold
B1: Full-length [35S]methionine-labeled SRC-3 (natural protein)
chain: not shown
modifications: [35S]methionine label
